# Assay results taken from patent publication US20240166765A1, “INFLAMMATORY DISEASE TREATMENT USING ANTI-TISSUE FACTOR ANTIBODIES” (Iconic Therapeutics LLC, priority 2020, published 2024).
# Assays:
# [1] = biological target: T1, human TF (TF-positive MDA-MB-231 cells) (Homo sapiens, UniProt P13726); assay: Antibody competition assay with 25A3 on MDA-MB-231 cells; assay type: binding; conditions: 20 nM 25A3-Alexa488
# T1 construct: Human TF-positive cancer cell lines A431 and MDA-MB-231; host or cells: MDA-MB-231
# Procedure: (§1) Alexa Fluor antibodies were generated using Alexa Fluor 488 5-sulfo-[…] esters (ThermoFisher Scientific) following manufacturer's protocol. Excess Alexa Fluor dye was removed from the antibody dye conjugate preparations by gel filtration (ThermoFisher Scientific).
# (§2) After another 1 hr incubation on ice, cells were washed, stained with a viability dye, and analyzed by flow cytometry. The Alexa488 fluorescence data from viable cells was summarized using median fluorescence intensity.
# [2] = system: thrombin generation (relipidated TF in normal pooled plasma); assay: Thrombin generation assay (TGA) without antibody pre-incubation; assay type: biochemical, human; conditions: Ab conc. 10 nM, Table 44
# Procedure: (§3) The TGA assay was performed using the calibrated-automated-thrombogram (CAT) instrument manufactured and distributed by STAGO. The test method design was equivalent to a standard CAT assay measurement, except that the plasma source was NPP in citrate/CTI. […] Relipidated TF was added to a 96-well assay plate, followed by addition of the antibody/NPP mixture. After a 10-min incubation or directly after combining the relipidated TF with antibody/NPP, thrombin generation was initiated by the addition of calcium and the thrombin substrate. The STAGO software was used to report the following parameters: Peak IIa (highest thrombin concentration generated [nM]); Lag Time (time to IIa generation [min]); ETP (endogenous thrombin potential, area under the curve [nM×min]); and ttPeak (time to Peak IIa [min]).
# as §3, with “was normal pooled plasma (NPP)” for “was NPP”, “in citrate supplemented with corn trypsin inhibitor (citrate/CTI).” for “in citrate/CTI.”
# TGA assay was performed using the calibrated-automated-thrombogram (CAT) instrument manufactured and distributed by STAGO (Diagnostica Stago SAS, Asnieres sur Seine, France). […] The anti-TF antibodies were titrated at 0, 10, 50 and 100 nM and mixed with NPP in citrate/CTI. Relipidated TF was added to a 96-well assay plate, followed by addition of the antibody/NPP mixture. After a 10-min incubation or directly after combining the relipidated TF with antibody/NPP, thrombin generation was initiated by the addition of calcium and the thrombin substrate. The STAGO software was used to report the following parameters: Peak IIa (highest thrombin concentration generated on the thrombin generation curve [nM]); Lag Time (time from assay start to the moment 10 nM of thrombin is formed [min]); ETP (endogenous thrombin potential, area under the curve [nM×min]); and ttPeak (time from assay start to Peak IIa [min]). […] As used herein, the term “thrombin generation assay” (TGA) refers to the TGA used in this example.
# [3] = biological target: T2, chimeric human-rat TF constructs expressed on HEK293 cells (Homo sapiens, UniProt P13726, E127T/E131K/E137D/L136R/N139K/P130R/S129A/T133L/Y126F); assay: Epitope binning, chimeric TF construct mapping (live cell staining assay); assay type: binding; conditions: construct h94-107_r (9); human segment replaced by rat segment
# T2 construct: expressed in transfected cells; host or cells: HEK293
# Procedure: (§4) To establish binding of the anti-human TF antibodies to the various TF constructs, HEK293 cells were transfected with a DNA plasmid that co-expresses the TF construct and a green fluorescent protein marker. For a subset of the antibodies, an antibody titration (a 12-point 1:3 dilution series starting at 250 nM) was evaluated on select TF constructs (See international PCT application PCT/US2019/012427 and U.S. utility application Ser. No. 16/959,652, incorporated herein by reference in their entirety). […] Two days after transfection, cells were collected from the tissue culture plate, stained with 15 μg/ml of the indicated anti-TF antibody, washed, stained with anti-human IgG-Fc Alexa Fluor 647 polyclonal antibody, washed, and stained with the viability dye 4′,6-Diamidino-2-Phenylindole, Dihydrochloride. Upon acquisition of 80,000 live events on a flow cytometer, live cells marked with the fluorescent marker were analyzed for the degree of staining by the anti-TF antibody. […] As used herein, the term “live cell staining assay” refers to the antibody binding assay used in this example.
# (§5) When “Percentage antibody binding to TF construct relative to hTF” in Tables 51 and 52 was less than 50%, the antibody was considered a non-binder (0) in Tables 53 and 54.
# [4] = biological target: T3, chimeric human-rat TF constructs expressed on HEK293 cells (Homo sapiens, UniProt P13726, D177Q/S174T); assay: as above; assay type: binding; conditions: construct h140-145_r (2); human segment replaced by rat segment
# T3 construct: expressed in transfected cells; host or cells: HEK293
# Procedure: as §4, §5
# [5] = biological target: T1, human TF (TF-positive MDA-MB-231 cells); assay: Antibody competition assay with 43D7 on MDA-MB-231 cells; assay type: binding; conditions: 20 nM 43D7-Alexa488
# Procedure: as §1, §2
# [6] = biological target: T4, TF:FVIIa (Homo sapiens, UniProt P13726); assay: FXa conversion assay on MDA-MB-231 cells; assay type: cell-based; conditions: concentrations of 25, 50, and 100 nM; Example 26
# T4 construct: host or cells: MDA-MB-231
# Procedure: (§6) To evaluate the ability of TF:FVIIa to convert FX into FXa in the presence of human antibodies against TF, 5×10^4 MDA-MB-231 cells (ATCC, Manassas, VA, USA) were plated into tissue culture-treated black 96-well plates (Greiner Bio-One, Monroe, NC, USA). […] Upon reconstitution of the binary TF:FVIIa complex with a final concentration of 20 nM of FVIIa, cells were incubated for 5 min at 37° C.
# as §6, with “Briefly,” for “To evaluate the ability of TF:FVIIa to convert FX into FXa in the presence of human antibodies against TF,”, “USA) and cultured overnight.” for “USA).”
# [7] = biological target: T1, human TF (TF-positive MDA-MB-231 cells); assay: Antibody competition assay with 39A on MDA-MB-231 cells; assay type: binding; conditions: 20 nM 39A-Alexa488
# Procedure: as §1, §2
# [8] = biological target: T1, human TF (TF-positive MDA-MB-231 cells); assay: FVIIa competition assay (FVII-Fc Alexa488) on MDA-MB-231 cells; assay type: binding; conditions: highest concentration of antibody; Example 26
# Procedure: To evaluate competition between FVIJa and the human antibodies against TF, TF-positive MIDA-MB-231 cells (ATCC, Manassas, VA, USA) were first incubated for 1 hr on ice with a titration of the human antibodies against TF. Subsequently, a final concentration of 20 nM of FVII-Fc conjugated to Alexa488 was added to the antibody cell mixture. After another 1 hr incubation on ice, cells were washed, stained with a viability dye, and analyzed by flow cytometry. The Alexa488 fluorescence data from viable cells was summarized using median fluorescence intensity.
# Subsequently, FVII-Fc conjugated to Alexa488 was added to the antibody-cell mixture at a final concentration of 20 nM. After another 1 hr incubation on ice, cells were washed, stained with a viability dye, and analyzed by flow cytometry. The Alexa488 fluorescence data from viable cells was summarized using median fluorescence intensity (MFI).
# T1 sequence (P13726 33-295): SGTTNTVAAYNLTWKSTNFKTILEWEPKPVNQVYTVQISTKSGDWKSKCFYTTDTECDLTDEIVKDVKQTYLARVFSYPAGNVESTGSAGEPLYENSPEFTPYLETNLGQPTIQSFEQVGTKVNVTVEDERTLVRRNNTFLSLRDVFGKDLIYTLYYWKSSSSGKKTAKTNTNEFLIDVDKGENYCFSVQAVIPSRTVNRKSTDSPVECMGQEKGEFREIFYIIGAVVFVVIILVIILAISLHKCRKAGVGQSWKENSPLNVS
# T2 sequence (P13726 33-251 Y126F/E127T/S129A/P130R/E131K/T133L/L136R/E137D/N139K): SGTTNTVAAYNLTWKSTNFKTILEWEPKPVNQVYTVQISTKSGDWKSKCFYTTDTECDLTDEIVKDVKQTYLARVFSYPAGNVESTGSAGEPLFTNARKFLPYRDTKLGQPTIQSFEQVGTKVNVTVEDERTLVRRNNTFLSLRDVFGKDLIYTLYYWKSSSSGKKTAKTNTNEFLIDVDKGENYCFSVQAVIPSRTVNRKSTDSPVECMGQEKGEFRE
# T4 sequence (P13726 33-295): as the sequence (P13726 33-295) above
# T3 sequence (P13726 33-251 S174T/D177Q): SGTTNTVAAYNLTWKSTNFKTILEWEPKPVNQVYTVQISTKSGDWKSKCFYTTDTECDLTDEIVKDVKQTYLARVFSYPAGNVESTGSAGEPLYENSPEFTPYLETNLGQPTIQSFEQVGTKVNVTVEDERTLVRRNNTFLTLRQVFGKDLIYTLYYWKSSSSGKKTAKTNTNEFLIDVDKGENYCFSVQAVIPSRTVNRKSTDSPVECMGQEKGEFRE
substance,measurement,setting,value
TF-011,% 25A3 binding,[1],did not reduce
same,ETP,[2],1714 nM·min
same,Antibody binding to TF construct,[3],"0 (less than 50%, the antibody was considered a non-binder (0))"
same,Antibody binding to TF construct,[4],"1 (between 50% and 150%, the antibody was considered a binder (1))"
same,% 43D7 binding,[5],did not reduce
same,inhibited FX conversion by,[6],57-59%
same,% 39A binding,[7],reduced
same,competition with FVII,[8],effectively competed with FVII
